Consider four proteins from publication PMC12395675.

A short description of series [1]: viral titre at 24 hpi, MOI 0.01. The note with it: glycan lost; control: rPEDV-WT.
The nature of series [2]: BAC transfection of Vero cells; CPE, western blot. Conditions: glycan lost; control: rPEDV-WT. For orientation: In western blotting, separated proteins are transferred to a membrane and probed.

B1: spike (S) protein: N688Q (protein)
parent chain: MKSLTYFWLFLPVLSTLSLPQDVTRCSANTNFRRFFSKFNVQAPAVVVLGGYLPIGENQGVNSTWYCAGQHPTASGVHGIFVSHIRGGHGFEIGISQEPFDPSGYQLYLHKATNGNTNATARLRICQFPSIKTLGPTANNDVTTGRNCLFNKAIPAHMSEHSVVGITWDNDRVTVFSDKIYYFYFKNDWSRVATKCYNSGGCAMQYVYEPTYYMLNVTSAGEDGISYQPCTANCIGYAANVFATEPNGHIPEGFSFNNWFLLSNDSTLVHGKVVSNQPLLVNCLLAIPKIYGLGQFFSFNQTIDGVCNGAAVQRAPEALRFNINDTSVILAEGSIVLHTALGTNFSFVCSNSSDPHLATFATPLGATQVPYYCFLKVDTYNSTVYKFLAILPPTVREIVITKYGDFYVNGFGYLHLGLLDAVTINFTGHGTDDDVSGFWTIASTNFVDALIEVQGTAIQRILYCDDPVSQLKCSQVSFDLDDGFYPISSRNLLSHEQPISFVTLPSFNDHSFVNITVSASFGGHSGANLIASDTTINGFSSFCVETRQFTISLFYNVTNSYGYVSKSQDSNCPFTLQSVNDYLSFSKFCVSTSLLASACTIDLFGYPEFGSGVKFTSLYFQFTKGELITGTPKPLVGVTDVSFMTLDVCTKYTIYGFKGEGIITLTNSSFLAGIYYTSDSGQLLAFKNVTSGAVYSVTPCSFSEQAAYVDDDIVGVISSLSNSTFNSTRELPGFFYHSNDGSNCTEPVLVYSNIGVCKSGSIGYVLSKSGQVKIAPTVTGNISIPTNFSMSIRTEYLQLYNTPVSVDCATYVCNGNSRCKQLLTQYIAACKTIESALQLSARLESAEVNSMLTISEEALQLATISSFNGDGYNFTNVLGVSVRDPASGRVVQKRSFIEDLLFNKVVTNGLGTVDEDYKRCSNGRSVADLVCAQYYSGVMVLPGVVDAEKLHMYSASLIGGMVLGGFTAAAALPFSYAVQARLNYLALQTDVLQRNQQLLAESFNSAIGDITSAFESVKEAISQTSKGLNTVAHALTKVQEVVNSQGAALTQLTVQLQHNFQAISSSIDDIYSRLDILSADVQVDRLITGRLSALNAFVAQTLTKYTEVQASRKLAQQKVNECVKSQSQRYGFCGGDGEHIFSLVQAAPQGLLFLHTVLVPGDFVDVIAIAGLCVNDEIALTLREPGLVLFTHELQNHTATEYFVSSRRMFEPRKPTVSDFVQIESCVVTYVNLTRDQLPDVIPDYIDVNKTLYEILASLPNRTGPSLPLDVFNATYLNLTGEIADLEQRSESLRNTTEELQSLIYNINNTLVDLEWLNRVETYIKWPWWVWLIIFIVLIFVVSLLVFCCISTGCCGCCGCCGACFAGCCRGPRLQPYEAFEKVHVQ
For B1, in series [1], the “other: viral replication” value was “no change”. The “other: virus rescue (viability), other: viruses recovered/attempts” value (from here on “other … viruses recovered/attempts”) in series [2] is on record as “no change”.

B2: spike (S) protein: N1196Q (protein)
parent chain: MKSLTYFWLFLPVLSTLSLPQDVTRCSANTNFRRFFSKFNVQAPAVVVLGGYLPIGENQGVNSTWYCAGQHPTASGVHGIFVSHIRGGHGFEIGISQEPFDPSGYQLYLHKATNGNTNATARLRICQFPSIKTLGPTANNDVTTGRNCLFNKAIPAHMSEHSVVGITWDNDRVTVFSDKIYYFYFKNDWSRVATKCYNSGGCAMQYVYEPTYYMLNVTSAGEDGISYQPCTANCIGYAANVFATEPNGHIPEGFSFNNWFLLSNDSTLVHGKVVSNQPLLVNCLLAIPKIYGLGQFFSFNQTIDGVCNGAAVQRAPEALRFNINDTSVILAEGSIVLHTALGTNFSFVCSNSSDPHLATFATPLGATQVPYYCFLKVDTYNSTVYKFLAILPPTVREIVITKYGDFYVNGFGYLHLGLLDAVTINFTGHGTDDDVSGFWTIASTNFVDALIEVQGTAIQRILYCDDPVSQLKCSQVSFDLDDGFYPISSRNLLSHEQPISFVTLPSFNDHSFVNITVSASFGGHSGANLIASDTTINGFSSFCVETRQFTISLFYNVTNSYGYVSKSQDSNCPFTLQSVNDYLSFSKFCVSTSLLASACTIDLFGYPEFGSGVKFTSLYFQFTKGELITGTPKPLVGVTDVSFMTLDVCTKYTIYGFKGEGIITLTNSSFLAGIYYTSDSGQLLAFKNVTSGAVYSVTPCSFSEQAAYVDDDIVGVISSLSNSTFNSTRELPGFFYHSNDGSNCTEPVLVYSNIGVCKSGSIGYVLSKSGQVKIAPTVTGNISIPTNFSMSIRTEYLQLYNTPVSVDCATYVCNGNSRCKQLLTQYIAACKTIESALQLSARLESAEVNSMLTISEEALQLATISSFNGDGYNFTNVLGVSVRDPASGRVVQKRSFIEDLLFNKVVTNGLGTVDEDYKRCSNGRSVADLVCAQYYSGVMVLPGVVDAEKLHMYSASLIGGMVLGGFTAAAALPFSYAVQARLNYLALQTDVLQRNQQLLAESFNSAIGDITSAFESVKEAISQTSKGLNTVAHALTKVQEVVNSQGAALTQLTVQLQHNFQAISSSIDDIYSRLDILSADVQVDRLITGRLSALNAFVAQTLTKYTEVQASRKLAQQKVNECVKSQSQRYGFCGGDGEHIFSLVQAAPQGLLFLHTVLVPGDFVDVIAIAGLCVNDEIALTLREPGLVLFTHELQNHTATEYFVSSRRMFEPRKPTVSDFVQIESCVVTYVNLTRDQLPDVIPDYIDVNKTLYEILASLPNRTGPSLPLDVFNATYLNLTGEIADLEQRSESLRNTTEELQSLIYNINNTLVDLEWLNRVETYIKWPWWVWLIIFIVLIFVVSLLVFCCISTGCCGCCGCCGACFAGCCRGPRLQPYEAFEKVHVQ
As to B2, in series [1], the “other: viral replication” value is “no change”. Also, the “other … viruses recovered/attempts” value in series [2] is listed as “no change”.

B3: spike (S) protein: N743Q (protein)
parent chain: MKSLTYFWLFLPVLSTLSLPQDVTRCSANTNFRRFFSKFNVQAPAVVVLGGYLPIGENQGVNSTWYCAGQHPTASGVHGIFVSHIRGGHGFEIGISQEPFDPSGYQLYLHKATNGNTNATARLRICQFPSIKTLGPTANNDVTTGRNCLFNKAIPAHMSEHSVVGITWDNDRVTVFSDKIYYFYFKNDWSRVATKCYNSGGCAMQYVYEPTYYMLNVTSAGEDGISYQPCTANCIGYAANVFATEPNGHIPEGFSFNNWFLLSNDSTLVHGKVVSNQPLLVNCLLAIPKIYGLGQFFSFNQTIDGVCNGAAVQRAPEALRFNINDTSVILAEGSIVLHTALGTNFSFVCSNSSDPHLATFATPLGATQVPYYCFLKVDTYNSTVYKFLAILPPTVREIVITKYGDFYVNGFGYLHLGLLDAVTINFTGHGTDDDVSGFWTIASTNFVDALIEVQGTAIQRILYCDDPVSQLKCSQVSFDLDDGFYPISSRNLLSHEQPISFVTLPSFNDHSFVNITVSASFGGHSGANLIASDTTINGFSSFCVETRQFTISLFYNVTNSYGYVSKSQDSNCPFTLQSVNDYLSFSKFCVSTSLLASACTIDLFGYPEFGSGVKFTSLYFQFTKGELITGTPKPLVGVTDVSFMTLDVCTKYTIYGFKGEGIITLTNSSFLAGIYYTSDSGQLLAFKNVTSGAVYSVTPCSFSEQAAYVDDDIVGVISSLSNSTFNSTRELPGFFYHSNDGSNCTEPVLVYSNIGVCKSGSIGYVLSKSGQVKIAPTVTGNISIPTNFSMSIRTEYLQLYNTPVSVDCATYVCNGNSRCKQLLTQYIAACKTIESALQLSARLESAEVNSMLTISEEALQLATISSFNGDGYNFTNVLGVSVRDPASGRVVQKRSFIEDLLFNKVVTNGLGTVDEDYKRCSNGRSVADLVCAQYYSGVMVLPGVVDAEKLHMYSASLIGGMVLGGFTAAAALPFSYAVQARLNYLALQTDVLQRNQQLLAESFNSAIGDITSAFESVKEAISQTSKGLNTVAHALTKVQEVVNSQGAALTQLTVQLQHNFQAISSSIDDIYSRLDILSADVQVDRLITGRLSALNAFVAQTLTKYTEVQASRKLAQQKVNECVKSQSQRYGFCGGDGEHIFSLVQAAPQGLLFLHTVLVPGDFVDVIAIAGLCVNDEIALTLREPGLVLFTHELQNHTATEYFVSSRRMFEPRKPTVSDFVQIESCVVTYVNLTRDQLPDVIPDYIDVNKTLYEILASLPNRTGPSLPLDVFNATYLNLTGEIADLEQRSESLRNTTEELQSLIYNINNTLVDLEWLNRVETYIKWPWWVWLIIFIVLIFVVSLLVFCCISTGCCGCCGCCGACFAGCCRGPRLQPYEAFEKVHVQ
Turning to B3, the “other: viral replication” value in series [1] is recorded as “no change”. Besides, the “other … viruses recovered/attempts” value in series [2] is recorded as “no change”.

B4: spike (S) protein: N781Q (protein)
parent chain: MKSLTYFWLFLPVLSTLSLPQDVTRCSANTNFRRFFSKFNVQAPAVVVLGGYLPIGENQGVNSTWYCAGQHPTASGVHGIFVSHIRGGHGFEIGISQEPFDPSGYQLYLHKATNGNTNATARLRICQFPSIKTLGPTANNDVTTGRNCLFNKAIPAHMSEHSVVGITWDNDRVTVFSDKIYYFYFKNDWSRVATKCYNSGGCAMQYVYEPTYYMLNVTSAGEDGISYQPCTANCIGYAANVFATEPNGHIPEGFSFNNWFLLSNDSTLVHGKVVSNQPLLVNCLLAIPKIYGLGQFFSFNQTIDGVCNGAAVQRAPEALRFNINDTSVILAEGSIVLHTALGTNFSFVCSNSSDPHLATFATPLGATQVPYYCFLKVDTYNSTVYKFLAILPPTVREIVITKYGDFYVNGFGYLHLGLLDAVTINFTGHGTDDDVSGFWTIASTNFVDALIEVQGTAIQRILYCDDPVSQLKCSQVSFDLDDGFYPISSRNLLSHEQPISFVTLPSFNDHSFVNITVSASFGGHSGANLIASDTTINGFSSFCVETRQFTISLFYNVTNSYGYVSKSQDSNCPFTLQSVNDYLSFSKFCVSTSLLASACTIDLFGYPEFGSGVKFTSLYFQFTKGELITGTPKPLVGVTDVSFMTLDVCTKYTIYGFKGEGIITLTNSSFLAGIYYTSDSGQLLAFKNVTSGAVYSVTPCSFSEQAAYVDDDIVGVISSLSNSTFNSTRELPGFFYHSNDGSNCTEPVLVYSNIGVCKSGSIGYVLSKSGQVKIAPTVTGNISIPTNFSMSIRTEYLQLYNTPVSVDCATYVCNGNSRCKQLLTQYIAACKTIESALQLSARLESAEVNSMLTISEEALQLATISSFNGDGYNFTNVLGVSVRDPASGRVVQKRSFIEDLLFNKVVTNGLGTVDEDYKRCSNGRSVADLVCAQYYSGVMVLPGVVDAEKLHMYSASLIGGMVLGGFTAAAALPFSYAVQARLNYLALQTDVLQRNQQLLAESFNSAIGDITSAFESVKEAISQTSKGLNTVAHALTKVQEVVNSQGAALTQLTVQLQHNFQAISSSIDDIYSRLDILSADVQVDRLITGRLSALNAFVAQTLTKYTEVQASRKLAQQKVNECVKSQSQRYGFCGGDGEHIFSLVQAAPQGLLFLHTVLVPGDFVDVIAIAGLCVNDEIALTLREPGLVLFTHELQNHTATEYFVSSRRMFEPRKPTVSDFVQIESCVVTYVNLTRDQLPDVIPDYIDVNKTLYEILASLPNRTGPSLPLDVFNATYLNLTGEIADLEQRSESLRNTTEELQSLIYNINNTLVDLEWLNRVETYIKWPWWVWLIIFIVLIFVVSLLVFCCISTGCCGCCGCCGACFAGCCRGPRLQPYEAFEKVHVQ
Take B4: in series [1], the “other: viral replication” value is reported as “no change”. The “other … viruses recovered/attempts” value in series [2] is on record as “no change”.
